{
  "source": "patent US20140037661A1",
  "about": "“Wheat Antigens and Peptides for Diagnosis of Wheat Induced Hypersensitivity” (PHADIA AB, priority 2011, published 2014)",
  "molecules": {"B1": {"name": "GG1: recombinant gamma gliadin 1 with 6×Histidine at the C terminal end, expressed in E. coli (protein)", "chain": "MNIQVDPSGQVQWLQQQLVPQLQQPLSQQPQQTFPQPQQTFPHQPQQQVPQPQQPQQPFLQPQQPFPQQPQQPFPQTQQPQQPFPQQPQQPFPQTQQPQQPFPQQPQQPFPQTQQPQQPFPQLQQPQQPFPQPQQQLPQPQQPQQSFPQQQRPFIQPSLQQQLNPCKNILLQQSKPASLVSSLWSIIWPQSDCQVMRQQCCQQLAQIPQQLQCAAIHSVVHSIIMQQQQQQQQQQGIDIFLPLSQHEQVGQGSLVQGQGIIQPQQPAQLEAIRSLVLQTLPSMCNVYVPPECSIMRAPFASIVAGIGGQHHHHHH"}, "B2": {"name": "GG2: recombinant gamma gliadin 2 with 6×Histidine at the C terminal end, expressed in E. coli (protein)", "chain": "MNIQVDPSSQVQWPQQQPVPQPHQPFSQQPQQTFPQPQQTFPHQPQQQFPQPQQPQQQFLQPQQPFPQQPQQPYPQQPQQPFPQTQQPQQLFPQSQQPQQQFSQPQQQFPQPQQPQQSFPQQQPPFIQPSLQQQVNPCKNFLLQQCKPVSLVSSLWSMIWPQSDCQVMRQQSCQQLAQIPQQLQCAAIHTVIHSIIMQQEQQQGMHILLPLYQQQQVGQGTLVQGQGIIQPQQPAQLEAIRSLVLQTLPTMCNVYVPPECSIIKAPFSSVVAGIGGQYRHHHHHH"}, "B3": {"name": "C175: recombinant protein of clone 175: the three C-terminal regions of GluB3-23 and the hexa-histidine tag (protein)", "chain": "RQQLGQGQQGYYPTSLQPGQKQQAGQGQQSGQGQQGYYPTSPQQSGQGQQPGQGQPGYYPTSPQQSGQWQQPGQGQQPGQGQQSGQWQLVYYPTSPQQQIVLQQRPPFLQQQQPSLPQQPPFSQQQQQLVLPQQQIPFVHPSILQQLNPCKVFLQQQCSPVAMPQSLARSQMLQQSSCHVMQQQCCQQLPQIPQQSRYEAIRAIIYSIILQEQQQVQGSIQTPQQQPQQLGQCVSQPQQQSQQQLGQQPQQQQLAQGTFLQPHQIAQLEVMTSIALRTLPTMCRVNVPLYRTTTSVPFGVGTGVGSYHHHHHH"}},
  "key": {"[1]": {"tested_on": "serum-IgA from CD patients", "experiment": "IgA reactivity ELISA to synthetic GG1 peptides", "format": "binding, human", "details": "5 μg/ml coated; n=8 CD, 2 CD on gluten free diet, 3 healthy controls; FIG. 16", "procedure": "ELISA plates were coated with 100 ul of 5 μg/ml of the 19 overlapping peptides, rGG1, alpha-gliadin peptide p56-75 and deamidated alpha gliadin peptide p56-75 (Q65E) and probed with serum-IgA from CD patients, CD patients on gluten free diet and healthy controls and detected using mouse anti-human IgA1/A2 and sheep anti-mouse IgG-HRP labelled antibody. Human serum albumin (HSA) was used as control (n=8 CD patients, 2 CD patients on gluten free diet and 3 healthy controls). […] Each of the synthetic GG1 peptides no."}, "[2]": {"tested_on": "serum IgA of celiac disease patients", "experiment": "IgA reactivity ELISA to wheat food antigens", "format": "binding, human", "details": "5 μg/ml coated, sera 1:100, read at 405 nm, FIG. 15", "procedure": "100 μl of the wheat proteins GG1 (Gamma gliadin 1), GG2 (Gamma gliadin 2), α-purothionin, GluB3-23, C-175, Mal 82 and Mal 43 of a concentration of 5 μg/ml were coated overnight at 4° C. onto Nunc Maxisorp Elisa plates. The remaining free binding sites were blocked with 1% BSA in PBST for 2 hours at room temperature. 100 μl of sera from celiac disease patients, celiac patients on diet and negative controls were added at a dilution of 1:100 in 0.5% BSA in PBST buffer and incubated for 12 hours at 4° C. The plates were washed 5 times in PBST buffer and 100 μl of mouse anti-human IgA1/A2 (BD Biosciences) diluted to 1:1000 in 0.5% BSA/PBST buffer was added and incubated at room temperature for 5 hours. The plates were then washed 5 times with PBST and 100 μl of sheep anti-mouse IgG conjugated with Horse radish peroxidise (HRP) (Amersham) antibodies were added and incubated at 37° C. for one hour."}, "[3]": {"tested_on": "serum IgA from Dermatitis herpetiformis (DH) patients", "experiment": "Dermatitis herpetiformis serum IgA reactivity ELISA", "format": "binding, human", "details": "5 μg/ml coated; n=12 DH patients, 2 healthy controls; FIG. 18", "procedure": "ELISA plates were coated with 100 μl of 5 μg/ml rGamma gliadin 1, rGamma gliadin 2, α-gliadin peptide p56-75 (α-gli peptide), deamidated α-gliadin peptide (D) and Human serum albumin. The bound proteins were probed with sera from Dermatitis herpetiformis (DH) patients and healthy controls. IgA reactivity to the proteins was detected using mouse anti-human IgA1/A2 and sheep anti-mouse IgG-HRP labelled antibody. (n=12 DH patients and 2 healthy controls)."}, "[4]": {"tested_on": "IgE binding to GluB3-23", "experiment": "IgE inhibition dot blot (sera pre-incubated with recombinant protein)", "design": "species or system human", "procedure": "An inhibition dot blot was performed with patients' sera. […] Bound IgE Abs were detected with ^125I-labelled anti human IgE Abs and visualized by autoradiography, the dot intensity was measured by a gamma counter."}, "[5]": {"tested_on": "serum IgE antibodies from patients suffering from wheat food allergy", "experiment": "IgE reactivity dot blot with sera from wheat food allergic patients", "format": "binding, human", "details": "0.5 μg dotted protein, sera 1:10", "procedure": "GluB3-23 is a major allergen in wheat dependent food allergy IgE reactivity of wheat food allergic patients to GluB3-23 and C175 was tested by dot blot analysis shown in FIG. 10 and FIG. 11. 0.5 μg of purified recombinant proteins (GluB3-23 and C175), 2 μg aqueous wheat seed (WSE) extract and 0.5 μg of human serum albumin (HSA) were dotted onto nitrocellulose (Whatman Protran nitrocellulose membrane, Sigma Aldrich) strips and after blocking with buffer A (50 mM sodium phosphate buffer, pH7.4, 0.5% w/v BSA, 0.5% v/v Tween-20, 0.05% w/v NaN3) incubated with 1:10 diluted sera from patients suffering from wheat food allergy. Bound IgE Abs were detected with 1:10 diluted ^125I labeled anti human IgE Abs and visualized by autoradiography.\nSera were obtained from populations of patients suffering from wheat food allergy. Patients were selected according to positive case history, positive Skin Prick Test (SPT), double blind or open food challenge or CAP-test (Phadia, Uppsala, Sweden) to wheat.\nThe recombinant high molecular weight proteins mal43 and mal82, representing partial proteins of Glu-B1, were tested in dot blots with sera from patients from a population shown in FIG. 11. Sera were obtained from patients suffering from wheat food allergy. Patients were selected according to positive case history and positive Skin Prick Test (SPT) or CAP-test (Phadia, Uppsala, Sweden) to wheat. 0.5 μg of purified recombinant proteins (mal43 and mal82), 2 μg aqueous wheat seed (WSE) extract and 0.5 μg of human serum albumin (HSA) were dotted onto nitrocellulose (Whatman Protran nitrocellulose membrane, Sigma Aldrich) strips and after blocking with buffer A incubated with 1:10 diluted patients sera. Bound IgE Abs were detected with 1:10 diluted ^125I labeled anti human IgE Abs and visualized by autoradiography. […] On the basis of WHO/IRIS Allergen Standardization Committee definition (www.allergen.org), an allergen recognized by 10% of the patients is a minor allergen.\nThe IgE reactivity of dot-blotted recombinant wheat α-purothionin was tested with serum IgE antibodies from patients suffering from wheat food allergy (Table 3). […] 23% of patients from one population (n=13) and 29% of the patients from another population (n=24) reacted to the recombinant α-purothionin. (FIG. 12)."}, "[6]": {"details": "serum Pat 3, pre-incubated with 10 μg protein"}, "[7]": {"details": "serum Pat 8, pre-incubated with 10 μg protein"}, "[8]": {"details": "serum Pat 10, pre-incubated with 10 μg protein"}, "[9]": {"details": "serum Pat 11, pre-incubated with 10 μg protein"}},
  "data": [
    {"molecule": "QVMRQQCCQQLAQIPQQLQCA (listed as Triticum aestivum) [compound 13]", "values": [
      {"measurement": "IgA reactivity of celiac disease patients' serum", "setting": "[1]", "result": "specific IgA reactivity"}
    ]},
    {"molecule": "B1", "values": [
      {"measurement": "IgA reactivity", "setting": "[2]", "result": "high"},
      {"measurement": "IgA reactivity, DH patients versus healthy controls", "setting": "[3]", "result": "higher IgA reactivity to sera from DH patients than to healthy controls"}
    ]},
    {"molecule": "B2", "values": [
      {"measurement": "IgA reactivity", "setting": "[2]", "result": "high"},
      {"measurement": "IgA reactivity, DH patients versus healthy controls", "setting": "[3]", "result": "higher IgA reactivity to sera from DH patients than to healthy controls"}
    ]},
    {"molecule": "B3", "values": [
      {"measurement": "IgA reactivity", "setting": "[2]", "result": "moderate"},
      {"measurement": "% inhibition of IgE binding", "setting": "[4]; [6]", "result": 22.6, "unit": "%"},
      {"measurement": "bound IgE, dot intensity by gamma counter", "setting": "[4]; [6]", "result": 650.0, "unit": "cpm"},
      {"measurement": "% inhibition of IgE binding", "setting": "[4]; [7]", "result": 3.0, "unit": "%"},
      {"measurement": "bound IgE, dot intensity by gamma counter", "setting": "[4]; [7]", "result": 73.9, "unit": "cpm"},
      {"measurement": "% inhibition of IgE binding", "setting": "[4]; [8]", "result": 0.0, "unit": "%"},
      {"measurement": "bound IgE, dot intensity by gamma counter", "setting": "[4]; [8]", "result": 379.1, "unit": "cpm"},
      {"measurement": "% inhibition of IgE binding", "setting": "[4]; [9]", "result": 55.3, "unit": "%"},
      {"measurement": "bound IgE, dot intensity by gamma counter", "setting": "[4]; [9]", "result": 190.0, "unit": "cpm"},
      {"measurement": "bound IgE, dot intensity by gamma counter", "setting": "[4]; serum Pat 12, pre-incubated with 10 μg protein", "result": 16.2, "unit": "cpm"},
      {"measurement": "potential to inhibit IgE binding to GluB3-23", "setting": "[4]; summary of Table 2", "result": "low potential to inhibit IgE binding"},
      {"measurement": "patients showing IgE reactivity", "setting": "[5]; another wheat food allergy patient population, FIG. 11", "result": 73.1, "unit": "%"},
      {"measurement": "patients showing IgE reactivity", "setting": "[5]; wheat food allergy patient population of FIG. 10", "result": 27.3, "unit": "%"}
    ]}
  ]
}
